In patent US20180057596A1 (AstraZeneca / MedImmune, published 2018):

T1: human IL-4Rα on TF-1 cells (human, UniProt P24394 26-825)
T1 sequence (looked up): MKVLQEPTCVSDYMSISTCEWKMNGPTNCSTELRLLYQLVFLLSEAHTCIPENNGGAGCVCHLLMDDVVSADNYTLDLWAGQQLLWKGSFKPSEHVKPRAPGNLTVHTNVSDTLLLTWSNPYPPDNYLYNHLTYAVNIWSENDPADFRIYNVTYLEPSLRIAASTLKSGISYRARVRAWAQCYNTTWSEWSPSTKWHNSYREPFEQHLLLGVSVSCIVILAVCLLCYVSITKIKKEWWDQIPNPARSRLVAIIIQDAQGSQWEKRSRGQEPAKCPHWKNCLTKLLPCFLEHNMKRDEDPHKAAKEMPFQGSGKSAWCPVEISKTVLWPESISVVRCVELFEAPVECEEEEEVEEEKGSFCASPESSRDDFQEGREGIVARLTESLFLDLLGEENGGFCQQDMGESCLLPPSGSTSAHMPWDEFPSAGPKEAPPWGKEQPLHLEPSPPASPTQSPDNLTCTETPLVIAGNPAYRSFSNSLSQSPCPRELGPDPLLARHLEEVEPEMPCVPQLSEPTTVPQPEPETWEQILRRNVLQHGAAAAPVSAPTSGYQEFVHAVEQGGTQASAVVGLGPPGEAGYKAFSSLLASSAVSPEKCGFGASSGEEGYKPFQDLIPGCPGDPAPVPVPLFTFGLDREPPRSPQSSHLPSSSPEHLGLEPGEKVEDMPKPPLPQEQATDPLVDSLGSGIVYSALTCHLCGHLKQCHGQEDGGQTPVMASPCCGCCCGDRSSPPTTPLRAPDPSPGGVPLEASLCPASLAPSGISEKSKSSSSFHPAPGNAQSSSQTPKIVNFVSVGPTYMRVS

B1: Antibody 14 IgG (antibody, V domains shown)
VH: QVQLVQSGAEVKKPGASVKVSCKASGYAFTSYYMHWARQAPGQGLEWMGIINPSGGSTSYAQKFQGRVTMTRDTSTSTVYMELSSLRSEDTAVYYCARGKWWLYNWGKGTLVTVSS
VL: QSVLTQPPSVSAAPGQKVTISCSGGSSNIGNSYVSWYQQLPGTAPKLLIYDNNKRPSGIPDRFSGSKSGTSATLAITGLQTGDEADYYCGTWDTSPPTKPLFGTGTKLTVL
B2: Antibody 13 IgG (antibody, V domains shown)
VH: QVQLVQSGAEVKKPGASVKVSCKASGYAFTSYYMHWARQAPGQGLEWMGIINPSGGSTSYAQKFQGRVTMTRDTSTSTVYMELSSLRSEDTAVYYCARGKWWLYDWGKGTLVTVSS
VL: QSVLTQPPSVSAAPGQKVTISCSGGSSNIGNSYVSWYQQLPGTAPKLLIYDNNKRPSGIPDRFSGSKSGTSATLAITGLQTGDEADYYCGTWDTSTTLQPLFGTGTKLTVL
B3: Antibody 42 IgG (antibody, V domains shown)
VH: QVQLVQSGAEVKKPGASVKVSCKASGYAFTSYYMHWARQAPGQGLEWVGIINPSGGSTSYAQKFQGRVTMTRDTSTSTVYMELSSLRSGDTAVYYCARGKYWMYDWGKGTLVTVSS
VL: QAVLTQPPSVSAAPGQKVTISCSGGSSNIGNSYVSWYQRLPGAAPKLLIYDNNKRPSGIPDRFSGSKSGTSATLAITGLQTGDEADYYCGTWDTSTGWEWPFGTGTKLTVL
B4: Antibody 21 IgG (antibody, V domains shown)
VH: QVQLVQSGAEVKKPGASVKVSCKASGYAFTSYYMHWARQAPGQGLEWMGIINPSGGSASYAQKFQGRVTMTRDTSTSTVYMELSSLRSEDTAVYYCARGKYWMYDWGKGTLVTVSS
VL: QSVLTQPPSVSAAPGQKVTISCSGGSSNIGNSYVSWYQQLPGTAPKLLIYDNNKRPSGIPDRFSGSKSGTSATLAITGLQTGDEAVYFCGTWDTSTVWEWPFGTGTKLTVL
B5: Antibody 19 IgG (antibody, V domains shown)
VH: QVQLVQSGAEVKKPGASVKVSCKASGYAFTSYYMHWARQAPGQGLEWMGIINPSGGSTSYAQKFQGRVTMTRDTSTSTVYMELSSLRSEDTAVYYCARGKWWWQHWGKGTLVTVSS
VL: QSVLTQPPSVSAAPGQKVTISCSGGSSNIGNSYVSWYQQLPGTAPKLLIYDNNKRPSGIPDRFSGSKSGTSATLAITGLQTGDEADYYCGTWDTSTTYHPIFGTGTKLTVL
B6: Antibody 16 IgG (antibody, V domains shown)
VH: QVQLVQSGAEVKKPGASVKVSCKASGYAFTSYYMHWARQAPGQGLEWMGIINPSGGSTSYAQKFQGRVTMTRDTSTSTVYMELSSLRSEDTAVYYCARGKWWLYNWGKGTLVTVSS
VL: QSVLTQPPSVSAAPGQKVTISCSGGSSNIGNSYVSWYQQLPGTAPKLLIYDNNKRPSGIPDRFSGSKSGTSATLAITGLQTGDEADYYCGTWDTSTTYHPIFGTGTKLTVL
B7: Antibody 4 IgG (antibody, V domains shown)
VH: QVQLVQSGAEVKKPGASVKVSCKASGYAFTSYYMHWARQAPGQGLEWMGIINPSGGSTSYAQKFQGRVTMTRDTSTSTVYMELSSLRSEDTAVYYCARGKWWLYNWGKGTLVTVSS
VL: QSVLTQPPSVSAAPGQKVTISCSGGSSNIGNSYVSWYQQLPGTAPKLLIYDNNKRPSGIPDRFSGSKSGTSATLAITGLQTGDEADYYCGTWDTSSPPQPIFGTGTKLTVL
B8: Antibody 15 IgG (antibody, V domains shown)
VH: QVQLVQSGAEVKKPGASVKVSCKASGYAFTSYYMHWARQAPGQGLEWMGIINPSGGSTSYAQKFQGRVTMTRDTSTSTVYMELSSLRSEDTAVYYCARGKWWLYNWGKGTLVTVSS
VL: QSVLTQPPSVSAAPGQKVTISCSGGSSNIGNSYVSWYQQLPGTAPKLLIYDNNKRPSGIPDRFSGSKSGTSATLAITGLQTGDEADYYCGTWDTSTHRHPLFGTGTKLTVL
B9: Antibody 24 IgG (antibody, V domains shown)
VH: QVQLVQSGAEVKKPGASVKVSCKASGYAFTSYYMHWARQAPGQGLEWMGIINPRGGSTSYAQKFQGRVTMTRDTSTSTVYMELSSLRSEDTAVYYCARGKYWMYDWGKGTLVTVSS
VL: QSVLTQPPSVSAAPGQKVTISCSGGSSNIGNSYVSWYQQLPGTAPKLLIYDNNKRPSGIPDRFSGSKSGTSATLAITGLQTGDEADYFCGTWDTSTVWEWPFGTGTKLTVL
B10: Antibody 31 IgG (antibody, V domains shown)
VH: QVQLVQSGAEVKKPGASVKVSCKASGYAFTSYYMHWARQAPGQGLEWMGIINPSGGSTSYAQKFQGRVTMTRDTSTSTVYMELSSLRSEDTAVYYCARGKYWMYDWGKGTLVTVSS
VL: QSVLTQPPSVSAAPGQKVTISCSGGSSSIGNSYVSWYQQLPGTAPKLLIYDNNKRPSGIPDRFSGSKSGTSATLAITGLQTGDEADYYCGTWATSPVWEWPFGTGTKLTVL
B11: Antibody 7 IgG (antibody, V domains shown)
VH: QVQLVQSGAEVKKPGASVKVSCKASGYAFTSYYMHWARQAPGQGLEWMGIINPSGGSTSYAQKFQGRVTMTRDTSTSTVYMELSSLRSEDTAVYYCARGKWWWQYWGKGTLVTVSS
VL: QSVLTQPPSVSAAPGQKVTISCSGGSSNIGNSYVSWYQQLPGTAPKLLIYDNNKRPSGIPDRFSGSKSGTSATLAITGLQTGDEADYYCGTWDTSSPPQPIFGTGTKLTVL
B12: Antibody 25 IgG (antibody, V domains shown)
VH: QVQLVQSGAEVKKPGASVKVSCKASGYAFTSYYMHWARQAPGQGLEWMGIINPRGGSASYAQKFQGRVSMTRDTSTSTVYMELSSLRSEDTAVYYCARGKYWMYDWGKGTLVTVSS
VL: QSVLTQPPSVSAAPGQKVTISCSGGSSNIGNSYVSWYQQLPGTAPKLLIYDNNKRPSGIPDRFSGSKSGTTATLAITGLQTGDEADYYCGTWVTSTVWEWPFGTGTKLTVL

Target: T1, human IL-4Rα on TF-1 cells
Experiment: cell-based or functional assay

Point of comparison: B10, “IC50 (pM), IL-4 induced TF-1 cell proliferation” value 20.2 pM. Against it:
- B1 — lower, 3.8 pM
- B2 — lower, 15.7 pM
- B3 — the same, 20.2 pM
- B4 — lower, 19.7 pM
- B5 — lower, 7.6 pM
- B6 — lower, 6.2 pM
- B7 — higher, 20.9 pM
- B8 — lower, 2.8 pM
- B9 — lower, 12.6 pM
- B11 — lower, 12.3 pM
- B12 — lower, 9.8 pM

Point of comparison: B8, “IC50 (pM), IL-13 induced TF-1 cell proliferation” value 17.8 pM. Against it:
- B1 — higher, 27.2 pM
- B2 — higher, 24.6 pM
- B3 — higher, 42.7 pM
- B4 — higher, 34.7 pM
- B5 — higher, 22.4 pM
- B6 — higher, 19.5 pM
- B7 — higher, 58.1 pM
- B9 — higher, 30.2 pM
- B10 — higher, 44.2 pM
- B11 — higher, 42.7 pM
- B12 — higher, 23.2 pM
